Experimental data published in PMC9253567, “The Role of ZAP and TRIM25 RNA Binding in Restricting Viral Translation” (Frontiers in Cellular and Infection Microbiology, 2022).
Changes are numbered by the printed parent chain. Numbers in names are those of the source.

B1: FLAG-tagged ZAPS H191R (ZnF 4 mutant) (natural protein, human, UniProt Q7Z2W4-2 1-699, looked up)
chain: MADPEVCCFITKILCAHGGRMALDALLQEIALSEPQLCEVLQVAGPDRFVVLETGGEAGITRSVVATTRARVCRRKYCQRPCDNLHLCKLNLLGRCNYSQSERNLCKYSHEVLSEENFKVLKNHELSGLNKEELAVLLLQSDPFFMPEICKSYKGEGRQQICNQQPPCSRLHICDHFTRGNCRFPNCLRSRNLMDRKVLAIMREHGLNPDVVQNIQDICNSKHMQKNPPGPRAPSSHRRNMAYRARSKSRDRFFQGSQEFLASASASAERSCTPSPDQISHRASLEDAPVDDLTRKFTYLGSQDRARPPSGSSKATDLGGTSQAGTSQRFLENGSQEDLLHGNPGSTYLASNSTSAPNWKSLTSWTNDQGARRKTVFSPTLPAARSSLGSLQTPEAVTTRKGTGLLSSDYRIINGKSGTQDIQPGPLFNNNADGVATDITSTRSLNYKSTSSGHREISSPRIQDAGPASRDVQATGRIADDADPRVALVNDSLSDVTSTTSSRVDDHDSEEICLDHLCKGCPLNGSCSKVHFHLPYRWQMLIGKTWTDFEHMETIEKGYCNPGIHLCSVGSYTINFRVMSCDSFPIRRLSTPSSVTKPANSVFTTKWIWYWKNESGTWIQYGEEKDKRKNSNVDSSYLESLYQSCPRGVVPFQAGSRNYELSFQGMIQTNIASKTQKDVIRRPTFVPQWYVQQMKRGPE
notes: zinc finger antiviral protein (ZAP), short isoform ZAPS, cloned from pTRIP-TagRFP-hZAPS; source: ZAP KO 293T cells, transfected (pcDNA3.1-3XFLAG), in lysate; not shown: 3XFLAG, N-terminal, kept
B2: FLAG-tagged ZAPL C88R (ZnF 2 mutant) (natural protein, human, UniProt Q7Z2W4-1 1-902, looked up)
chain: MADPEVCCFITKILCAHGGRMALDALLQEIALSEPQLCEVLQVAGPDRFVVLETGGEAGITRSVVATTRARVCRRKYCQRPCDNLHLRKLNLLGRCNYSQSERNLCKYSHEVLSEENFKVLKNHELSGLNKEELAVLLLQSDPFFMPEICKSYKGEGRQQICNQQPPCSRLHICDHFTRGNCRFPNCLRSHNLMDRKVLAIMREHGLNPDVVQNIQDICNSKHMQKNPPGPRAPSSHRRNMAYRARSKSRDRFFQGSQEFLASASASAERSCTPSPDQISHRASLEDAPVDDLTRKFTYLGSQDRARPPSGSSKATDLGGTSQAGTSQRFLENGSQEDLLHGNPGSTYLASNSTSAPNWKSLTSWTNDQGARRKTVFSPTLPAARSSLGSLQTPEAVTTRKGTGLLSSDYRIINGKSGTQDIQPGPLFNNNADGVATDITSTRSLNYKSTSSGHREISSPRIQDAGPASRDVQATGRIADDADPRVALVNDSLSDVTSTTSSRVDDHDSEEICLDHLCKGCPLNGSCSKVHFHLPYRWQMLIGKTWTDFEHMETIEKGYCNPGIHLCSVGSYTINFRVMSCDSFPIRRLSTPSSVTKPANSVFTTKWIWYWKNESGTWIQYGEEKDKRKNSNVDSSYLESLYQSCPRGVVPFQAGSRNYELSFQGMIQTNIASKTQKDVIRRPTFVPQWYVQQMKRGPDHQPAKTSSVSLTATFRPQEDFCFLSSKKYKLSEIHHLHPEYVRVSEHFKASMKNFKIEKIKKIENSELLDKFTWKKSQMKEEGKLLFYATSRAYVESICSNNFDSFLHETHENKYGKGIYFAKDAIYSHKNCPYDAKNVVMFVAQVLVGKFTEGNITYTSPPPQFDSCVDTRSNPSVFVIFQKDQVYPQYVIEYTEDKACVIS
notes: zinc finger antiviral protein (ZAP), long isoform ZAPL, cloned from pTRIP-TagRFP-hZAPL; source: ZAP KO 293T cells, transfected (pcDNA3.1-3XFLAG), in lysate; not shown: 3XFLAG, N-terminal, kept
B3: FLAG-tagged ZAPL H191R (ZnF 4 mutant) (natural protein, human, UniProt Q7Z2W4-1 1-902, looked up)
chain: B2 chain with R88C, H191R
notes: as for B2
B4: FLAG-tagged ZAPL V72A/Y108A/F144A (natural protein, human, UniProt Q7Z2W4-1 1-902, looked up)
chain: B2 chain with V72A, R88C, Y108A, F144A
notes: zinc finger antiviral protein (ZAP), long isoform ZAPL, cloned from pTRIP-TagRFP-hZAPL; also called ZAPL VYF; VYF; source: ZAP KO 293T cells, transfected (pcDNA3.1-3XFLAG), in lysate; not shown: 3XFLAG, N-terminal, kept
B5: FLAG-tagged ZAPL K107A/Y108A (natural protein, human, UniProt Q7Z2W4-1 1-902, looked up)
chain: B2 chain with R88C, K107A, Y108A
notes: zinc finger antiviral protein (ZAP), long isoform ZAPL, cloned from pTRIP-TagRFP-hZAPL; also called ZAPL KY; KY; source: ZAP KO 293T cells, transfected (pcDNA3.1-3XFLAG), in lysate; not shown: 3XFLAG, N-terminal, kept
B6: FLAG-tagged ZAPL E148A/K151A/R170A (natural protein, human, UniProt Q7Z2W4-1 1-902, looked up)
chain: B2 chain with R88C, E148A, K151A, R170A
notes: zinc finger antiviral protein (ZAP), long isoform ZAPL, cloned from pTRIP-TagRFP-hZAPL; also called ZAPL EKR; EKR; source: ZAP KO 293T cells, transfected (pcDNA3.1-3XFLAG), in lysate; not shown: 3XFLAG, N-terminal, kept
B7: FLAG-tagged ZAPL H176A/F184A/R189A (natural protein, human, UniProt Q7Z2W4-1 1-902, looked up)
chain: B2 chain with R88C, H176A, F184A, R189A
notes: zinc finger antiviral protein (ZAP), long isoform ZAPL, cloned from pTRIP-TagRFP-hZAPL; also called ZAPL HFR; HFR; source: ZAP KO 293T cells, transfected (pcDNA3.1-3XFLAG), in lysate; not shown: 3XFLAG, N-terminal, kept

Target: T1, myc-tagged TRIM25 WT (tripartite motif-containing protein 25) (UniProt Q14258 1-630)
Assay: cell-based or functional assay
Details: not given

T1 sequence (Q14258 whole entry): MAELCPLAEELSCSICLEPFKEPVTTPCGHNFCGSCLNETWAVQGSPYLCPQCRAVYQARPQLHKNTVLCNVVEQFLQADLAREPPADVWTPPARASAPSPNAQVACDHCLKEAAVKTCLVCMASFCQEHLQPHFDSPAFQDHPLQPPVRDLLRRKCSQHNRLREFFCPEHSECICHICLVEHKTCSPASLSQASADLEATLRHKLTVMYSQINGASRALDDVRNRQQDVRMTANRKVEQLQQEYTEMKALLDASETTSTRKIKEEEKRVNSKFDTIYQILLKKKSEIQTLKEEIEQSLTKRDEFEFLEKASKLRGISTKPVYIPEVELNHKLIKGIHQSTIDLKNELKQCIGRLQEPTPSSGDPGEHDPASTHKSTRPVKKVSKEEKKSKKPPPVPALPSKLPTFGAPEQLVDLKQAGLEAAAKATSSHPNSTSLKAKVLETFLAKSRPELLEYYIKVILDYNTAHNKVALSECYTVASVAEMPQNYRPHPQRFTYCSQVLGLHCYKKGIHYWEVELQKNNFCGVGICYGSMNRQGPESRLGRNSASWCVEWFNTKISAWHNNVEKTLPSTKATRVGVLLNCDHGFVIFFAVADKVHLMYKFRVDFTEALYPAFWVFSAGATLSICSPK

First: B1
Second: B2
The “JEV translation inhibition: fold inhibition of Renilla luciferase from a replication-defective JEV replicon, relative to empty plasmid, ZAP KO 293T cells, 4 h after replicon transfection” value of the first is lower: 2.18 fold inhibition relative to empty plasmid transfection for the first, 5.19 fold inhibition relative to empty plasmid transfection for the second.

In the case of B3, the “JEV translation inhibition: fold inhibition of Renilla luciferase from a replication-defective JEV replicon, relative to empty plasmid, ZAP KO 293T cells, 4 h after replicon transfection” value is reported as 9.05 fold inhibition relative to empty plasmid transfection.

Target: T1, myc-tagged TRIM25 WT (tripartite …)
Assay: co-IP; myc IP (anti-myc beads) of myc-TRIM25 WT from lysates of ZAP KO 293T cells co-transfected with FLAG-ZAPS or FLAG-ZAPL WT or mutants; FLAG-ZAP detected by immunoblot; FLAG IP buffer (100 mM Tris-HCl 8.0, 150 mM NaCl, 5 mM EDTA, 1 mM DTT, 5% glycerol, 0.1% NP-40), 4°C, 45 min; FLAG IP band divided by myc IP band (ImageJ)
Details: partners not purified

Compared with B1, B2 is higher in “ZAP-TRIM25 interaction (co-IP, FLAG-ZAP band over myc-TRIM25 band, ImageJ)” value: 1.05 for the first, 1.13 for the second.

Going from B4 to B5, the “ZAP-TRIM25 interaction (co-IP, FLAG-ZAP band over myc-TRIM25 band, ImageJ)” value falls from 0.574 to 0.086.

Going from B6 to B7, the “ZAP-TRIM25 interaction (co-IP, FLAG-ZAP band over myc-TRIM25 band, ImageJ)” value falls from 0.196 to 0.03.

With B3 the “ZAP-TRIM25 interaction (co-IP, FLAG-ZAP band over myc-TRIM25 band, ImageJ)” value was 0.899.
